In the DeepSol protein solubility set:

test: soluble on expression in E. coli; label from the status in PepcDB or PDB records

Row | Sequence | soluble on expression in E. coli
1 | SPKKAKPTGSGKEEGPAPCKQMKLEAAGGPSALNFDSPSSLFESLISPIKTETFFKEFWEQKPLLIQRDDPALATYYGSLFKLTDLKSLCSRGMYYGRDVNVCRCVNGKKKVLNKDGKAHFLQLRKDFDQKRATIQFHQPQRFKDELWRIQEKLECYFGSLVGSNVYITPAGSQGLPPHYDDVEVFILQLEGEKHWRLYHPTVPLAREYSVEAEERIGRPVHEFMLKPGDLLYFPRGTIHQADTPAGLAHSTHVTISTYQNNSWGDFLLDTISGLVFDTAKEDVELRTGIPRQLLLQVESTTVATRRLSGFLRTLADRLEGTKELLSSDMKKDFIMHRLPPYSAGDGAELSTPGGKLPRLDSVVRLQFKDHIVLTVLPDQDQSDETQEKMVYIYHSLKNSRETHMMGNEEETEFHGLRFPLSHLDALKQIWNSPAISVKDLKLTTDEEKESLVLSLWTECLIQVV | soluble
2 | MNGNRAQPMNMPNEPHPKLKLEQYLGIQIKRQRQAQELKLADVARIAGISQGMLSKIENAQVSTSLDNLSRLCDVLGMPMSKLFSQYDQQGSSALLVRADEGLEVVRRGTEKGHTYHLLNHTRGPKKSFEAYMVTMDDASEEFPTFSHPGTEFLHLLEGELIYRHGNQLYPMQAGDSLTFDGDIPHGPEQLVQVPIKLLSIMNYGAQGD | not soluble
3 | MAEHRGGSGNFAENREKASEAGRKGGQHSGGNFKNDPQRASEAGKKGGQNSHGGRKSDNS | not soluble
4 | MGSDKIHHHHHHMHHDLVDVLIIEDESELARLHAELVQKHPRLRLAGMAASLAQARQLLHATPPQLVLLDNYLPDGKGVTLMTDPALATSQCSVIFITAASDMETCSQAIRNGAFDYILKPVSWKRLSQSLERFIQFYDQQREWKIVDQQNVDSLYQLQAKNYRVDSGSKGIEEKTLALVQGLFSDREAHCFSVDEVVSAAGLSKTTARRYLEHGVETGFLEVEMLYGKIGHPRRLYRRAKVKS | not soluble
5 | GVRNLAQGPRGCEHYDRACLLKAPCCDKLYTCRLCHDTNEDHQLDRFKVKEVQCINCEKLQHAQQTCEDCSTLFGEYYCSICHLFDKDKRQYHCESCGICRIGPKEDFFHCLKCNLCLTTNLRGKHKCIE | soluble
6 | QVQLVQSGAEVKKPGSSVKVSCTSSEVTFSSFAISWVRQAPGQGLEWLGGISPMFGTPNYAQKFQGRVTITADQSTRTAYMDLRSLRSEDTAVYYCARSPSYICSGGTCVFDHWGQGTLVTVSSGGGGSGGGGSGGGGIQPGLTQPPSVSKGLRQTATLTCTGNSNNVGNQGAAWLQQHQGHPPKLLSYRNNDRPSGISERFSASRSGNTASLTITGLQPEDEADYYCSTWDSSLSAVVFGGGTKLTVLGQPKAAPSAAAEQKLISEEDLNGAAHHHHHH | soluble
7 | MGSDKIHHHHHHMTKLQLKYRELKIISVIAASENISHAATVLGIAQANVSKYLADFESKVGLKVFDRTTRQLMLTPFGTALLPYINDMLDRNEQLNNFIADYKHEKRGRVTIYAPTGIITYLSKHVIDKIKDIGDITLSLKTCNLERNAFYEGVEFPDDCDVLISYAPPKDESLVASFITQYAVTAYASQRYLEKHPISRPDELEHHSCILIDSMMIDDANIWRFNVAGSKEVRDYRVKGNYVCDNTQSALELARNHLGIVFAPDKSVQSDLQDGTLVPCFQQPYEWWLDLVAIFRKREYQPWRVQYVLDEMLREIRHQLAQSQQLRPEQAAESED | not soluble
8 | MVGPLNGAIGDITGAASELENIPFIGPAIGAKLQRTMRGINVAQAKVGQVVAMYGRATSAVSQVQERIGTLKEQASKASAAINRVAGKISPSLGNIVPTGSFASQATPAPEAVKPFPHLLIIQPLKPEAQPYYFNLDTAAFDELRRQTAFRWAGQERLTRSIAQQAVGLGDDKLSLKGSIFPGFKGGLKQLNTLRSMGRNLQPLSLTTGYGEVLGNWCLLSVDEEQSNLLAGGIPRKQGFSLEFVSYGDDLQNV | not soluble
9 | MWKRIALFLVVLLLAACGKTIPDAKNWPVEDFTFVDQTGKPFGLRDLKGKVWVADFIFTNCETVCPPMTAHMAKLKQMAKKEGLDVEFVSFSVDPEVDTPEKLAAYAKQFTDDLSNWHLLTGYSPAEISELAQKSFKTIVQKPANDDQVVHGTSFYLVGPDGKVVQTYSGVQDVPYETILEHIKIVQSSQ | not soluble
10 | MDARIVNALIGSVYETIRDVLGIEPKTGKPSTVSHIEIPHSLVTVIGITGGIEGSLIYSFSSETALKVVSAMMGGMEYNQLDELALSAIGELGNMTAGKLAMKLEHLGKHVDITPPTVVSGRDLKIKSFGVILKLPISVFSEEDFDLHLSVKSGG | soluble
11 | MMQRRAVFGLFLLPLARGQGTCAPTPALTQGPYYLRDVPQREDLREGLPGVPLRLLLRVRDRACRPLQGARVDLWHTDALGRYSGVNAPGTFCRGWQATDERGEVAFLTLFPGWYPSRTPHLHLRVEAGGRVFATQLFFPEEVQRQVYALPPYRERGMPRVNNRQDGLFRADLLLRLEREGEAYRGAFVLTLPG | soluble
12 | MGSDKIHHHHHHMKDVQNEKDPRMVPLKKVGIKDLHWPLKVILKEDGYQSTVAQISCSVDLHREKRGIHMSRFIEVLNKLEVITPQIFEEILDDLIEIMEAKRAHLEIHFPYFIWKESPVSRKKSPLKVDCFVEAEKEKNFSFKIGVRTPVHTLCPCSKEISDYGAHNQRAFVEITVKTRKFIWFEDLVEIAEKNASSPLYTLLKRPDEKFVTEKAYENPRFVEDVARDVALELEKDPRITWYRVYVESMESIHNHNAFACVEKGDFVLEG | not soluble
13 | SARKSNLPVLLVPFLLCQALVRCSSPLPLVVNTWPFKNATEAAWRALASGGSALDAVESGCAMCEREQCDGSVGFGGSPDELGETTLDAMIMDGTTMDVGAVGDLRRIKNAIGVARKVLEHTTHTLLVGESATTFAQSMGFINEDLSTSASQALHSDWLARNCQPNYWRNVIPDPSKYCGPYKPPGILKQDIPIHKETEDDRGHDTIGMVVIHKTGHIAAGTSTNGIKFKIHGRVGDSPIPGAGAYADDTAGAAAATGNGDILMRFLPSYQAVEYMRRGEDPTIACQKVISRIQKHFPEFFGAVICANVTGSYGAACNKLSTFTQFSFMVYNSEKNQPTEEKVDCI | soluble
14 | MEPHSLRYNLMVLSQDESVQSGFLAEGHLDGQPFLRYDRQKRRAKPQGQWAEDVLGAETWDTETEDLTENGQDLRRTLTHIKDQKGGLHSLQEIRVCEIHEDSSTRGSRHFYYNGELFLSQNLETQESTVPQSSRAQTLAMNVTNFWKEDAMKTKTHYRAMQADCLQKLQRYLKSGVAIRRTVPPMVNVTCSEVSEGNITVTCRASSFYPRNITLTWRQDGVSLSHNTQQWGDVLPDGNGTYQTWVATRIRQGEEQRFTCYMEHSGNHGTHPVPSGKVLVLQSQRTDFPYVSAAMPCFVIIIILCVPCCKKKTSAAEGP | soluble
15 | RADEQAFLVALYKYMKERKTPIERIPYLGFKQINLWTMFQAAQKLGGYETITARRQWKHIYDELGGNPGSTSAATCTRRHYERLILPYERFIKGEEDKPLPPIKPRK | soluble
16 | MHGVEFAPLERQHGSQVLALLRGTLLVPLPRLHQRLEEAYERDARLGLAQVALCRLAGNAEKVVGVLLARVATRRTCCAQVYIDAVAVDAVFQGQGIGSRLLLRVLTPCLPDGLEVREVFLHTPLQATELVAFYRSCGFESDDEVIDNYYPRRWMPQAQALVLRWRPPTAAQHQHEERKGPQDADVS | not soluble
17 | MKPKLILMSHGRMAEETLASTQMIVGELADAAIVSMTAEDGLSGTQAKLAAILKEAGNVPTLVLADLKGGTPCNVAMMAMGTYPQLRVVAGLNLAMAIEAAVSPVENVDELAAYLTQIGQSAVTTIDLPELTDEEEFEE | soluble
18 | MAHHHHHHMSELKIGFLGCGSMGECIMAGLLKAKALGPENTFICNRSASTNERLVSLYQVKSVSAVELAEKSDIIMLGVKPYGIVPVLETIKEKITPSKLVVSMAAGVPIATIENHCPPKTKVVRVMPNIPSYVGEGVTSISGNSAVTPDDEAVVMKLFSAIGKSYLVAESAIHGVVGVAGSSPAYVFMFMEALSDGAVRGGIPRAQSYEMAAQAVLGAAKMLQDSGKTPSALKDMVCSPGGTTIEAVRFLEKGGMRSSIIEAMIQCMEKSKEFERMYSE | soluble
19 | MIITTTPTVENRQIIEYKGLVFGEVVAGANIIRDFFASITDMIGGRSGVYEDKLNVARQEALVELQKQARNIGANAVIGVSIQYQSMGKKDMFIIVATGTAVVIGLEHHHHHH | not soluble
20 | MSPDEDLRLLYLRLIPQLAENRPEFQQAIADSPLFTAYMKLLKRQAELSPRILSALLSAISSIVRSHLPAYLKFQAKNGLTATEKLIQSTKDHKNAVKAGRMIVSFLYTLTDLQGIDEITEEIKNSILKIYTLLDGRSRFVDRADDSEETKEFYEETMKMIKFEIMQMHPDIITPQTRKLLEEHFKESNLRAGLMPIGGWPVIPKNEWPQPPQPPCHKANKNAEPKKEPEPAKKVAPKQETKVDQEAAELARKIQIEEDKTRKRHEIVARFSILDIYTKEELAEKLKLDAEMEMAEAQKVLKEIR | not soluble
21 | MSLCLSAQRLGEEPRVNSTGRYSGPMRVLHLASEVFPFSRSGGLGDVLGALPAVQARLGEDAEVTVLSPWYASLQGEPQELWRGEAWGEQAWLGELRQDGVRYLFLGLNEFQRPGLYHPDDVERFCAFGRAALPALDAVGVTPDVLHGHDWQAGLVVAHARLRGLRTAFSVHNLQYQGRWNLHEAAGWTGLPDWTFGPDGVEFFGDLNLMKAGLNFAGHVTTVSPTYAQEITTPQYGEGLEGLLVRLTHEGRLSGILNGLDQDRWNPRTDPDIAAYSDPAGKAGAVKALRQEFGLDDAPILATVSRLADQKGMDLLITALPELVRDWNVVVLGGGDPLLEAALTGWANHPRVAFASGMNEPLAHRIYAGAHAFAMPSRFEPCGLSQLIAMRYGTLPIVRETGGLADTVPPEVGFRFADATAPAFLQACREAQAAFQDPAQWQTRATRAMSLDFSWDGPARQYLELYRGLEGHHHHHH | soluble
22 | DTTYGCPGEWRCLKAAALGEGKFDEPVRVIGFVRCECPGNTLVPNIGMTMKLSEVKPDAIYFSSCMLRDPGCPYRSAEEWAKIVENAFQIPVKLGTH | not soluble
23 | SLLLRLCRWLRLLGYPTVAAHEVVDPTKVEDEDEVLVEFCREHDALLITRDRQLARRARAVLITADSVPEQIAEVLEFLGDEAFLDPDESRCPECNARVRRVTAENPGPFEVTWECPECRRKYWVGGHWRDMEETIDRVKKALRRVQRGHLRG | not soluble
24 | MSLKTPIFAQQTDPALTSAVLGQTAALKKVHKDRKKTQEKIIAAEVAVTASLERIHHVEDKMLDYLSNAQGAMQNLYQIKRAGELVAKEIPQNCSLLLKSVGGNLKGTVIAAMVSDELTDAATQMTALFPFMKQLVTSGKYDVTGDDGKNEKHKVNLLNASERYYIANEVVSRLEAINTNLFILAWQVRTLSWNDLWFSLDPEGWANVMSGKNIIGGIISDWNQGYSLKEGHHHHHH | soluble
25 | MGSDKIHHHHHHMFDPETLRTFIAVAETGSFSKAAERLCKTTATISYRIKLLEENTGVALFFRTTRSVTLTAAGEHLLSQARDWLSWLESMPSELQQVNDGVERQVNIVINNLLYNPQAVAQLLAWLNERYPFTQFHISRQIYMGVWDSLLYEGFSLAIGVTGTEALANTFSLDPLGSVQWRFVMAADHPLANVEEPLTEAQLRRFPAVNIEDSARTLTKRVAWRLPGQKEIIVPDMETKIAAHLAGVGIGFLPKSLCQSMIDNQQLVSRVIPTMRPPSPLSLAWRKFGSGKAVEDIVTLFTQRRPEISGFLEIFGNPRS | not soluble
